From US20050233313 come the findings set out here.

For this data set, the system named is β-galactosidase substrate with a cleavage cassette (decapeptide corresponding to an HIV protease cleavage site) inserted into its open reading frame [β-galactosidase: P00722].
β-galactosidase substrate with a cleavage cassette (decapeptide corresponding to an HIV protease cleavage site) inserted into its open reading frame [β-galactosidase: P00722], sequence (P00722 2-1024): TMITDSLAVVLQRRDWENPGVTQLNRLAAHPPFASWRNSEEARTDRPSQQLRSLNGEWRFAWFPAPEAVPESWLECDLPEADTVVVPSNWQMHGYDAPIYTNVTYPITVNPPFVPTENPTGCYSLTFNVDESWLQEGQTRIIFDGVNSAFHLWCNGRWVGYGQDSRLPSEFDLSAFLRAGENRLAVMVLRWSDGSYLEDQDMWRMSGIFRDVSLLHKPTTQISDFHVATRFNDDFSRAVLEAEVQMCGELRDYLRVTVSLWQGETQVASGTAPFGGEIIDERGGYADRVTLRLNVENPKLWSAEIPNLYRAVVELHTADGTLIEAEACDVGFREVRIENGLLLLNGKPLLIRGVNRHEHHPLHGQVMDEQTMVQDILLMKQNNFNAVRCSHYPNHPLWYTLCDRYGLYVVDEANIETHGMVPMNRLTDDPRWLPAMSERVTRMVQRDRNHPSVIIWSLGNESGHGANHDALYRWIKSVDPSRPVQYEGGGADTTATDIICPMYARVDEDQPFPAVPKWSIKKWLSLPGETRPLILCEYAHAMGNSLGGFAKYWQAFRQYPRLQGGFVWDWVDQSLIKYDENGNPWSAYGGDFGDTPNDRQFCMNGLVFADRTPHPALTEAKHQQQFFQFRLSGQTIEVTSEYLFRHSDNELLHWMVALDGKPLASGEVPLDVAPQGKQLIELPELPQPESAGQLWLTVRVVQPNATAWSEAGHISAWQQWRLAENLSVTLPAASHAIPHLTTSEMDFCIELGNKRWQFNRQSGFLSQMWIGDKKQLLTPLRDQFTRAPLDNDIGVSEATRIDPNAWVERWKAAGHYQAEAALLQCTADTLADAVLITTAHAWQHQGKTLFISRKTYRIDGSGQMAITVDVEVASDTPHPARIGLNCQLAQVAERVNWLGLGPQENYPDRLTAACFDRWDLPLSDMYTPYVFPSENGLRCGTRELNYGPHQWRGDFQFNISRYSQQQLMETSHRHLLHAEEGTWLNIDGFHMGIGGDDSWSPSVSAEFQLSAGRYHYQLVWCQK
The substance “HIV-1 protease D25A (99 residues, HXB2) expressed from pMono” had a % Cleavage of 0%.

On to “HIV-1 protease F99A (99 residues, HXB2) expressed from pMono”, for which the % Cleavage came out at 0%.

As for “HIV-1 protease I3A (99 residues, HXB2) expressed from pMono”, the % Cleavage came out at 0%. To “HIV-1 protease L97A (99 residues, HXB2) expressed from pMono” belongs 0%; to “HIV-1 protease N98A (99 residues, HXB2) expressed from pMono”, 68%; to “HIV-1 protease P1A (99 residues, HXB2) expressed from pMono”, 92%.

Consider “HIV-1 protease Q2A (99 residues, HXB2) expressed from pMono”, for which the % Cleavage is 96%. To “HIV-1 protease T4A (99 residues, HXB2) expressed from pMono” belongs 96%; to “HIV-1 protease T96A (99 residues, HXB2) expressed from pMono”, 14%.
